Experimental data reported in patent US20210322404A1, “FGFR REGULATION FOR THE TREATMENT OF VIRAL INFECTIONS” (ETH ZURICH, priority 2016, published 2021).

How the values were obtained:
[1] = test system: HSV-1; assay: HSV-1 infection of HaCaT cells, virus load; format: cell-based, Herpes Simplex Virus type 1
Method: FIGS. 5A-C relate to HaCaT cells infected with HSV-1 (MOI=0.5) after overnight serum starvation, either alone or in combination with FGF7 (10 ng/ml) or IFNα (1000U/ml). 24 h after infection, virus load was determined by qPCR for the HSV-1 Glycoprotein B (Glyc-B) gene relative to the human β-actin gene (A) or visualized by immunofluorescence staining for HSV-1 Glycoprotein D (Glyc-D) (red) (B). The Glyc-B/β-actin gene ratio in HSV-1 infected cells was set to 1. Cell nuclei were stained with DAPI (blue). Magnification bar: 200 μm. (C) Transmission microscopy images of HaCaT cells taken 48 h after HSV-1 infection. […] Magnification bar: 80 μm. Representative data out of four experiments are shown.
FIGS. 5 D & E relate to overnight-starved HaCaT cells infected with HSV-1 (MOI=0.5) alone or in combination with IFNα (1000 U/ml), IFNα and FGF7 (10 ng/ml) (D); or FGF7 at different concentrations (E).
FIG. 5F pertains to serum-starved HaCaT cells that were infected with HSV-1 (MOI 0.5-1). After 4 h, infected cells were washed with PBS, followed by addition of fresh serum-free culture medium containing FGF7 (10 ng/ml).
FIGS. 5G-K pertains to overnight-starved HaCaT cells infected with HSV-1 (MOI=0.5) alone or in combination with FGF7, which was added at the indicated time points. 12 h after infection, cells were analyzed for Glyc-B DNA (H) and, RSAD2 and IRF7 mRNA levels by qPCR/qRT-PCR (I) or for ISG protein levels by western blotting (K). Vinculin was used as loading control.
FIGS. 7A-C relate to serum-starved HaCaT cells that were infected with HSV-1 in the presence or absence of FGF7 (10 ng/ml), NSC23766 (20 μM), the FGFR kinase inhibitors AZD4547 (1 μM) and BGJ398 (3.5 μM) (A) or IFNα (1000 U/ml) (B). […] Magnification bar: 500 μm. The Glyc-D positive area was quantified using digital pixel measurements (C, right). A representative out of two experiments is shown.
Frozen sections from mouse back skin were fixed with cold methanol, and unspecific binding sites were blocked with PBS/2% bovine serum albumin (BSA) (Sigma)/1% fish skin gelatin (Sigma)/0.05% Triton X-100 (Carl Roth GmbH, Karlsruhe, Germany) for 2 h at room temperature. Samples were then incubated overnight at 4° C. with anti-IRF7 or anti-K14 antibodies diluted in the same buffer. After three washes with 1×PBS/0.1% Tween 20 (Carl Roth GmbH), slides were incubated at room temperature (RT) for 4 h with secondary antibodies (AF555-conjugated anti-rabbit IgG and AF488-conjugated anti-mouse IgG) and DAPI (4′,6-diamidino-2-phenylindole dihydrochloride) (Sigma) as counter-stain, washed again and mounted with Mowiol (Hoechst, Frankfurt, Germany). Stained sections were photographed with a Leica SP1-2 confocal microscope equipped with a 63×0.6-1.32 NA (Iris) PL Apo Oil objective. For data acquisition the Leica Confocal Software (Leica, Wetzlar, Germany) was used. For immunofluorescence staining of cultured cells, they were washed with PBS and either fixed for 5 min with cold methanol for staining with antibodies against ZO-1 and IRF7, or with 4% paraformaldehyde (PFA) (Sigma) for 20 min at RT for Glyc-D staining. PFA-fixed cells were then incubated for 10 min with 0.5% Triton X-100 in PBS. After 1 h blocking in PBS containing 2% BSA, cells were stained with the primary antibodies for 1 h in the same blocking buffer. After three washes with PBS, cells were incubated with the secondary antibodies (AF555-conjugated anti-mouse IgG, AF488-conjugated anti-mouse IgG and AF555-conjugated anti-rabbit IgG) and DAPI.

[2] = test system: interferon-stimulated genes (ISGs); assay: ISG expression in mouse keratinocytes treated with FGF7 and/or IFNα (qRT-PCR); format: cell-based
[3] = Active RAC1 detection after FGF7 treatment; format: cell-based, human; conditions: HaCaT cells, FGF7 10 ng/ml, 10 min
Method: FIG. 4D pertains to mouse primary keratinocytes (left panel) or HaCaT cells (right panel), which had been treated with FGF7 (10 ng/ml) or vehicle for 10 min and analyzed for active RAC1 using the Active RAC1 detection kit (Cell Signaling). Activation of FGFR signaling under these conditions was verified by phosphorylation of ERK1/2 (p42/44).

[4] = test system: HSV-1; assay: HSV-1 infection of human primary foreskin keratinocytes; conditions: HSV-1 MOI=0.5, 24 h

B1: FGF7: recombinant human FGF7, the classical ligand of FGFR2b (protein, UniProt P21781 32-194, looked up)
Fibroblast growth factor 7: CNDMTPEQMATNVNCSSPERHTRSYDYMEGGDIRVRRLFCRTQWYLRIDKRGKVKGTQEMKNNYNIMEIRTVAVGIVAIKGVESEFYLAMNKEGKLYAKKECNEDCNFKELILENHYNTYASAKWTHNGGEMFVALNQKGIPVRGKKTKKEQKTAHFLPMAIT
- viral DNA, FGF7 given after removal of the virus ([1]; HaCaT infected 4 h, virus removed, FGF7 10 ng/ml for 8 h): A strong increase in viral DNA
- appearance of HSV-1 infected cells (transmission microscopy) ([1]; HaCaT, 48 h after infection): completely detached
- IFNα-mediated reduction in viral DNA ([1]; HaCaT, HSV-1, IFNα 1000 U/ml and FGF7 10 ng/ml): partially reverted
- levels of viral DNA at different FGF7 concentrations ([1]; HaCaT, HSV-1 MOI=0.5): induced the levels of viral DNA in a dose-dependent manner
- HSV-1 glycoprotein D (Glyc-D) immunofluorescence staining ([1]; HaCaT, HSV-1 MOI=0.5, FGF7 10 ng/ml): increased strongly
- viral glycoprotein B (Glyc-B) DNA ([1]; HaCaT, HSV-1 MOI=0.5, FGF7 10 ng/ml or IFNα 1000 U/ml): A strong increase in viral DNA
- HSV-1 replication, FGF7 present only for 4h ([1]; HaCaT, analysis 12 h after infection): no longer promoted
- HSV-1 replication, FGF7 added with the virus or 2h or 4h post infection ([1]; HaCaT, exposed to FGF7 for 12h, 10h or 8h): strongly promoted HSV-1 replication
- expression of Ifnα subtypes, Ifnβ and Il28a (Ifnλ2) ([2]; mouse keratinocytes, FGF7 10 ng/ml): not reduced
- increase in ISG expression in response to IFNα ([2]; mouse primary keratinocytes, FGF7 10 ng/ml and IFNα 1000 U/ml, 6 h): reduced
- ISG expression (qRT-PCR relative to Rps29) ([2]; primary and immortalized keratinocytes from wild-type mice, FGF7 10 ng/ml, 3 or 6 h): strongly suppressed
- expression of ISGs in IFNAR-deficient cells ([2]; primary keratinocytes from Ifnar KO mice, FGF7 6 h): still suppressed expression of ISGs
- active RAC1 [3]: activated RAC1
- effect on HSV-1 infection (Glyc-B qPCR) [4]: confirmed
